Legend:
Spp381-DHFR = target: T1, Spp381-DHFR (S. cerevisiae, UniProt P38282 1-291, Cy5-TMP fluorophore bound to the DHFR tag); assay: colocalization single molecule spectroscopy
T1 sequence (looked up): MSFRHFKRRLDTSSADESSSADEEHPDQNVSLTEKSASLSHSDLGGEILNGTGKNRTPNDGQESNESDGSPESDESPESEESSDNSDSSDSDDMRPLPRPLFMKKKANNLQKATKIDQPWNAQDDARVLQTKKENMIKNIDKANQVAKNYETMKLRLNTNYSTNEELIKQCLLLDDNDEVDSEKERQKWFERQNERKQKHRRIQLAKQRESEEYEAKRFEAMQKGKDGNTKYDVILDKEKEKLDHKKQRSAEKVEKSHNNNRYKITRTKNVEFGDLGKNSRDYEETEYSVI

Snu23-DHFR = target: T2, Snu23-DHFR (S. cerevisiae, UniProt Q12368 1-194, Cy5-TMP fluorophore bound to the DHFR tag); assay: colocalization single molecule spectroscopy
T2 sequence (looked up): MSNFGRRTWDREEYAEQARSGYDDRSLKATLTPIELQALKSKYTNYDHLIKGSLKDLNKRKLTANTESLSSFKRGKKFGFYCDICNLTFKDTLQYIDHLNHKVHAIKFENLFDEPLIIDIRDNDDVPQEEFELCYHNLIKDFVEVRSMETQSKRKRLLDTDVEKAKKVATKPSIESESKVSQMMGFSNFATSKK

event pairs (of those arriving together) with simultaneous release (Spp381-DHFR): 77%
event pairs with simultaneous arrival at the pre-mRNA (Spp381-DHFR): 91%
event pairs (of those arriving together) with simultaneous release (Snu23-DHFR): 77%
event pairs with simultaneous arrival at the pre-mRNA (Snu23-DHFR): 91%
B1: Prp38-SNAP (natural protein)
chain: MAVNEFQVESNISPKQLNNQSVSLVIPRLTRDKIHNSMYYKVNLSNESLRGNTMVELLKVMIGAFGTIKGQNGHLHMMVLGGIEFKCILMKLIEIRPNFQQLNFLLNVKNENGFDSKYIIALLLVYARLQYYYLNGNNKNDDDENDLIKLFKVQLYKYSQHYFKLKSFPLQVDCFAHSYNEELCIIHIDELVDWLATQDHIWGIPLGKCQWNKIYNSDEESSSSESESNGDSEDDNDTSSES
modifications: SNAP-Surface 549 dye (SNAP-DY549) on the SNAP tag

From article PMC11326307 (bioRxiv, 2024)
